Columns and labels:
[1] = target: 3×HA-FKBP-CUL1 (human | Cyanidioschyzon merolae)
[2] = target: 3×HA-FKBP-SKP1 (human | Cyanidioschyzon merolae)

- half-life (t1/2) of mVenus-FRB in the mV^RD-CUL1 strain after the addition of 500 nM rapamycin (the bridging compound), immunoblot time course [1]: 30 min
- half-life (t1/2) of mVenus-FRB in the mV^RD-SKP1 strain after the addition of 500 nM rapamycin (the bridging compound), immunoblot time course [2]: 46 min
Substance: mVenus-FRB (domain or fragment)
